Measured values taken from the RNAGym collection of RNA variant scans (doi:10.7554/elife.80360).

B1: CPEB3 Ribozyme (parent)
chain: GGGGGCCACAGCAGAAGCGUUCACGUCGCGGCCCCUGUCAGAUUCUGGUGAAUCUGCGAAUUCUGCUGU

Variants of: B1
Test: self-cleavage, relative activity (ratio to wild type); higher = more cleavage; co-transcriptional

| Variant | self-cleavage |
| --- | --- |
| GGGGGCCACAGCAGAAGCGUUAACGUCGCGGCCCCUGUCAGAUUCUAGUGAAUCUGCGAAUUCUGCUGU [C22A G47A] | 0.217 |
| GGGGGCCACAGCAGAAGCGUUAACGUCGCGGCCCCUGUCAGAUUCUUGUGAAUCUGCGAAUUCUGCUGU [C22A G47U] | 0.18 |
| GGGGGCCACAGCAGAAGCGUUAACGUCGCGGCCCCUGUCAGAUUCUGAUGAAUCUGCGAAUUCUGCUGU [C22A G48A] | 0.223 |
| GGGGGCCACAGCAGAAGCGUUAACGUCGCGGCCCCUGUCAGAUUCUGCUGAAUCUGCGAAUUCUGCUGU [C22A G48C] | 0.162 |
| GGGGGCCACAGCAGAAGCGUUAACGUCGCGGCCCCUGUCAGAUUCUGUUGAAUCUGCGAAUUCUGCUGU [C22A G48U] | 0.162 |
| GGGGGCCACAGCAGAAGCGUUAACGUCGCGGCCCCUGUCAGAUUCUGGUCAAUCUGCGAAUUCUGCUGU [C22A G50C] | 0.234 |
| GGGGGCCACAGCAGAAGCGUUAACGUCGCGGCCCCUGUCAGAUUCUGGUUAAUCUGCGAAUUCUGCUGU [C22A G50U] | 0.253 |
| GGGGGCCACAGCAGAAGCGUUAACGUCGCGGCCCCUGUCAGAUUCUGGUGAAUCUACGAAUUCUGCUGU [C22A G56A] | 0.134 |
| GGGGGCCACAGCAGAAGCGUUAACGUCGCGGCCCCUGUCAGAUUCUGGUGAAUCUCCGAAUUCUGCUGU [C22A G56C] | 0.173 |
| GGGGGCCACAGCAGAAGCGUUAACGUCGCGGCCCCUGUCAGAUUCUGGUGAAUCUGCAAAUUCUGCUGU [C22A G58A] | 0.179 |
| GGGGGCCACAGCAGAAGCGUUAACGUCGCGGCCCCUGUCAGAUUCUGGUGAAUCUGCUAAUUCUGCUGU [C22A G58U] | 0.119 |
| GGGGGCCACAGCAGAAGCGUUAACGUCGCGGCCCCUGUCAGAUUCUGGUGAAUCUGCGAAUUCUACUGU [C22A G65A] | 0.152 |
| GGGGGCCACAGCAGAAGCGUUAACGUCGCGGCCCCUGUCAGAUUCUGGUGAAUCUGCGAAUUCUUCUGU [C22A G65U] | 0.209 |
| GGGGGCCACAGCAGAAGCGUUAACGCCGCGGCCCCUGUCAGAUUCUGGUGAAUCUGCGAAUUCUGCUGU [C22A U26C] | 0.242 |
| GGGGGCCACAGCAGAAGCGUUAACGGCGCGGCCCCUGUCAGAUUCUGGUGAAUCUGCGAAUUCUGCUGU [C22A U26G] | 0.305 |
| GGGGGCCACAGCAGAAGCGUUAACGUCGCGGCCCCAGUCAGAUUCUGGUGAAUCUGCGAAUUCUGCUGU [C22A U36A] | 0.137 |
| GGGGGCCACAGCAGAAGCGUUAACGUCGCGGCCCCGGUCAGAUUCUGGUGAAUCUGCGAAUUCUGCUGU [C22A U36G] | 0.161 |
| GGGGGCCACAGCAGAAGCGUUAACGUCGCGGCCCCUGACAGAUUCUGGUGAAUCUGCGAAUUCUGCUGU [C22A U38A] | 0.225 |
| GGGGGCCACAGCAGAAGCGUUAACGUCGCGGCCCCUGGCAGAUUCUGGUGAAUCUGCGAAUUCUGCUGU [C22A U38G] | 0.131 |
| GGGGGCCACAGCAGAAGCGUUAACGUCGCGGCCCCUGUCAGAAUCUGGUGAAUCUGCGAAUUCUGCUGU [C22A U43A] | 0.143 |

| Variant | self-cleavage |
| --- | --- |
| GGGGGCCACAGCAGAAGCGUUAACGUCGCGGCCCCUGUCAGAGUCUGGUGAAUCUGCGAAUUCUGCUGU [C22A U43G] | 0.181 |
| GGGGGCCACAGCAGAAGCGUUAACGUCGCGGCCCCUGUCAGAUGCUGGUGAAUCUGCGAAUUCUGCUGU [C22A U44G] | 0.237 |
| GGGGGCCACAGCAGAAGCGUUAACGUCGCGGCCCCUGUCAGAUUCAGGUGAAUCUGCGAAUUCUGCUGU [C22A U46A] | 0.181 |
| GGGGGCCACAGCAGAAGCGUUAACGUCGCGGCCCCUGUCAGAUUCCGGUGAAUCUGCGAAUUCUGCUGU [C22A U46C] | 0.186 |
| GGGGGCCACAGCAGAAGCGUUAACGUCGCGGCCCCUGUCAGAUUCGGGUGAAUCUGCGAAUUCUGCUGU [C22A U46G] | 0.148 |
| GGGGGCCACAGCAGAAGCGUUAACGUCGCGGCCCCUGUCAGAUUCUGGAGAAUCUGCGAAUUCUGCUGU [C22A U49A] | 0.195 |
| GGGGGCCACAGCAGAAGCGUUAACGUCGCGGCCCCUGUCAGAUUCUGGCGAAUCUGCGAAUUCUGCUGU [C22A U49C] | 0.209 |
| GGGGGCCACAGCAGAAGCGUUAACGUCGCGGCCCCUGUCAGAUUCUGGGGAAUCUGCGAAUUCUGCUGU [C22A U49G] | 0.0812 |
| GGGGGCCACAGCAGAAGCGUUAACGUCGCGGCCCCUGUCAGAUUCUGGUGAAACUGCGAAUUCUGCUGU [C22A U53A] | 0.208 |
| GGGGGCCACAGCAGAAGCGUUAACGUCGCGGCCCCUGUCAGAUUCUGGUGAAGCUGCGAAUUCUGCUGU [C22A U53G] | 0.151 |
| GGGGGCCACAGCAGAAGCGUUAACGUCGCGGCCCCUGUCAGAUUCUGGUGAAUCAGCGAAUUCUGCUGU [C22A U55A] | 0.234 |
| GGGGGCCACAGCAGAAGCGUUAACGUCGCGGCCCCUGUCAGAUUCUGGUGAAUCCGCGAAUUCUGCUGU [C22A U55C] | 0.113 |
| GGGGGCCACAGCAGAAGCGUUAACGUCGCGGCCCCUGUCAGAUUCUGGUGAAUCUGCGAAAUCUGCUGU [C22A U61A] | 0.219 |
| GGGGGCCACAGCAGAAGCGUUAACGUCGCGGCCCCUGUCAGAUUCUGGUGAAUCUGCGAACUCUGCUGU [C22A U61C] | 0.164 |
| GGGGGCCACAGCAGAAGCGUUAACGUCGCGGCCCCUGUCAGAUUCUGGUGAAUCUGCGAAGUCUGCUGU [C22A U61G] | 0.25 |
| GGGGGCCACAGCAGAAGCGUUAACGUCGCGGCCCCUGUCAGAUUCUGGUGAAUCUGCGAAUGCUGCUGU [C22A U62G] | 0.112 |
| GGGGGCCACAGCAGAAGCGUUAACGUCGCGGCCCCUGUCAGAUUCUGGUGAAUCUGCGAAUUCAGCUGU [C22A U64A] | 0.176 |
| GGGGGCCACAGCAGAAGCGUUAACGUCGCGGCCCCUGUCAGAUUCUGGUGAAUCUGCGAAUUCCGCUGU [C22A U64C] | 0.168 |
| GGGGGCCACAGCAGAAGCGUUAACGUCGCGGCCCCUGUCAGAUUCUGGUGAAUCUGCGAAUUCGGCUGU [C22A U64G] | 0.0937 |
